Measured values from publication PMC7064499.

Target: FliPQR complex, V. mimicus (FliP5Q4R1) (Vibrio mimicus (strain DSM 19130))
Experiment: cryo-EM structure

Substance FlhB, V. mimicus (natural protein) has a stoichiometry N of 1.
